The supplement of paper PMC9732359
± gives the uncertainty stated by the source.

Assay: protein stability index of a GFP-peptide fusion (yeast GPS) (PSI 1-4); higher = more stable; sorted into four equal gates, so the index is relative within each strain
In short: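 Tiled 17-residue yeast protein peptides were fused downstream of GFP in a plasmid that also expresses Cherry, and the pooled library was carried in yeast. Mid-log cultures in leucine-free medium were sorted into four equal gates by GFP/Cherry fluorescence ratio, and plasmids from each gate were PCR-amplified and Illumina-sequenced, with reads assigned to strains by barcodes. The protein stability index for each peptide was each gate's read frequency times its gate number, summed.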

Sequence | protein stability index (doa10∆) | protein stability index (pdr5∆) | protein stability index (san1∆) | protein stability index (ubr1∆)
VSKSEPKFFLGEENRVR [QCR2] | 3.42 ± 0.097 | 3.18 ± 0.077 | 3.13 ± 0.053 | 3.26 ± 0.048
LPNETINDRNDRAIRKT [DIS3] | – | – | – | 2.29 ± 0.11
NTNTENENRNTGAGVDV [SNF11] | 2.9 ± 0.062 | 2.98 ± 0.045 | 2.66 ± 0.044 | 2.88 ± 0.044
DMKEYDSDKGSKLNELK [SMC2] | 3.25 ± 0.14 | 3.28 ± 0.1 | 3.27 ± 0.072 | 3.29 ± 0.14
PSTGSNLQQQQQQQIQV [YGR119C/NUP57] | – | 2.55 ± 0.19 | – | –
GLSVTQKVFVRSRNGGA [DIS3] | 1.46 ± 0.071 | 1.32 ± 0.065 | 1.4 ± 0.15 | 1.62 ± 0.063
LLIEFPYLPKHYLVLLV [YJR042W/NUP85] | 1.98 ± 0.06 | 1.67 ± 0.053 | 2.07 ± 0.067 | 1.81 ± 0.047
RNFLETVELQVGLKNYD [RPL1A] | 3.01 ± 0.087 | 3.08 ± 0.079 | 3.1 ± 0.091 | 3.15 ± 0.074
MVNIGLHNLNEYQIVYY [RGR1] | 1.65 ± 0.14 | 2.56 ± 0.1 | 2.11 ± 0.11 | 1.43 ± 0.27
ILNSYGVLKPDITFFGE [SIR2] | 3.27 ± 0.069 | 3.13 ± 0.072 | 3.21 ± 0.049 | 3.31 ± 0.062
GLNSDAEEVRNFALTTL [ECM29] | 2.84 ± 0.14 | 3.13 ± 0.29 | 1.38 ± 0.098 | 1.62 ± 0.11
QPTIRKDGLKLVGSWKK [RPO21] | 3.52 ± 0.19 | – | 3.3 ± 0.14 | –
LMTSHTKGDTSKATGAP [RTT102] | 3.12 ± 0.068 | 3.34 ± 0.079 | 3.27 ± 0.059 | 3.17 ± 0.06
MHKQLAYILAAQKTSFE [RPN1] | 2.37 ± 0.056 | 2.46 ± 0.064 | 2.29 ± 0.067 | 2.43 ± 0.063
TIFSPEGRLYQVEYALE [PRE9] | 3.13 ± 0.079 | 3.32 ± 0.088 | 3.14 ± 0.11 | 3.12 ± 0.051
QRGKWNLKYLDNSNVMT [RGR1] | 2.37 ± 0.093 | 2.49 ± 0.084 | 2.58 ± 0.077 | 1.95 ± 0.073
GIKLALDPNLITLALSS [SRB4] | 2.21 ± 0.052 | 2.91 ± 0.065 | 2.58 ± 0.055 | 2.63 ± 0.04
DDYEDQDDDDYVDTATA [IRR1] | 3.14 ± 0.08 | 3.47 ± 0.071 | 2.93 ± 0.093 | 3.22 ± 0.049
KSKERSSQFVRLASEPG [YMR129W/POM152] | 2.65 ± 0.14 | 2.62 ± 0.13 | 3.16 ± 0.1 | 2.8 ± 0.074
RNPDIYTREFVEAIRRS [NUT2] | 2.42 ± 0.068 | 2.15 ± 0.055 | 2.84 ± 0.15 | 3.02 ± 0.054

Sequence | protein stability index (doa10∆) | protein stability index (pdr5∆) | protein stability index (san1∆) | protein stability index (ubr1∆)
DMLEHINLAMNESSLAL [SRB4] | 1.49 ± 0.094 | 1.28 ± 0.11 | 1.25 ± 0.15 | 1.52 ± 0.092
STGPTGAVSLNPSITRL [RRP4] | 2.92 ± 0.057 | 3.05 ± 0.074 | 2.88 ± 0.042 | 3.06 ± 0.05
LKKLEKEYELLTLQEDY [RPT3] | 2.37 ± 0.1 | 2.31 ± 0.13 | 2.6 ± 0.12 | 2.32 ± 0.052
EKIKDIHNTKLPAYSGE [POP1] | 3.09 ± 0.059 | 3.04 ± 0.057 | 2.96 ± 0.048 | 2.79 ± 0.08
LDELQWKSPEWIQVFGL [MED6] | 2.24 ± 0.078 | 2.41 ± 0.053 | 2.62 ± 0.071 | 2.56 ± 0.066
SNSANVSSPESEKNKRQ [ITC1] | 2.93 ± 0.06 | 3.1 ± 0.045 | 2.95 ± 0.036 | 3.09 ± 0.033
WRVREASTSALLQLIQS [ECM29] | 1.16 ± 0.13 | 1.41 ± 0.12 | 1.04 ± 0.22 | –
DSTLILEQLAQHTTESD [RPB2] | 2.17 ± 0.05 | 2.67 ± 0.055 | 2.46 ± 0.072 | 2.43 ± 0.052
DRVQQDSEDEDSMKDTT [YML031W/NDC1] | 3.25 ± 0.14 | 3.22 ± 0.16 | 3.26 ± 0.091 | 3.25 ± 0.07
DLKLLFNTEAEQTVSAV [RGR1] | 2.84 ± 0.088 | 2.93 ± 0.085 | 3.33 ± 0.11 | 3.19 ± 0.066
NKNGNAVCSTATVVSTN [PGD1] | 2.77 ± 0.059 | 2.83 ± 0.061 | 2.3 ± 0.073 | 2.81 ± 0.053
SDINQNDDSSSMNATMR [YDL088C/ASM4] | 2.88 ± 0.09 | 2.98 ± 0.075 | 2.76 ± 0.073 | 2.69 ± 0.054
LQDDEDHKFPIRENKVT [BRN1] | 2.7 ± 0.1 | 3.07 ± 0.083 | 2.75 ± 0.074 | 2.38 ± 0.095
PSNFEINAEEIVDFTLP [PRP8] | 2.91 ± 0.083 | 3.18 ± 0.082 | 3 ± 0.064 | 3.02 ± 0.049
EKLKVNMEKEKDRIIDE [YIL149C/MLP2] | 3.37 ± 0.23 | 3.05 ± 0.2 | 3.39 ± 0.1 | 2.75 ± 0.14
FIPHGLKRRQVIEQCYL [SRB8] | 2.78 ± 0.074 | 2.63 ± 0.08 | 2.46 ± 0.1 | 2.44 ± 0.049
LERYYKEQADIYAKQQE [ARP7] | 3.29 ± 0.29 | – | – | 3.42 ± 0.14
IYAGFGRDTTDYLKNII [RPN2] | – | 2.75 ± 0.21 | 3.22 ± 0.16 | –
TKSNRRVSHSDTNSSKP [SIR4] | 2.97 ± 0.077 | 3.19 ± 0.085 | 2.99 ± 0.077 | 3.25 ± 0.053
